From the supplement of paper PMC6757056
± gives the standard deviation of the averaged measurements.

B1: library; a variant is named by its letters at N, in order (parent)
chain: GCUGUCACCGGUGCUUGGUACGUUAUAUUCAGCCGGUCUGAUGAGUCUNNNNNNAGACGAAACAGC

Legend:
[1] = variants of: B1; experiment: normalized RNA/DNA level without ligand (relative to sTRSVctl = 100) (log10 (% of sTRSVctl)); HEK293T overexpressing SLC46A1; higher = less ribozyme self-cleavage, higher mRNA level; conditions: without (6R,S)-folinic acid; ligand present: no
Summary of the method: (§1)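 Ribozyme switch library plasmids with mCherry reporters (eGFP in certain ligand experiments) went into HEK293T cells at 4 µg per 6-well well. Where ligand was used, it was applied 1 h before transfection, and total RNA was extracted with EDTA 72 h later for reverse transcription, amplification, barcoding and sequencing. RNA level is the RNA-to-DNA read ratio normalized to a spiked-in non-cleaving sequence or to the leading sequences, then scaled and log-transformed. Scaling was ×100 with log10, the leading set comprised 25 sequences, and the cutoff was ≥100 DNA reads.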

[2] = variants of: B1; experiment: normalized RNA/DNA level with ligand (relative to sTRSVctl = 100) (log10 (% of sTRSVctl)); HEK293T overexpressing SLC46A1; ligand concentration (+) RNA-Seq: 6 mM; higher = less ribozyme self-cleavage, higher mRNA level; conditions: with (6R,S)-folinic acid; ligand present: yes
Summary of the method: as §1

Variant	normalized RNA/DNA level without ligand (log10) [1]	normalized RNA/DNA level with ligand (log10) [2]
ACUUCC	2.058 ± 0.009	2.0589 ± 0.002
CGGUUG	2.026 ± 0.02	2 ± 0.065
GGAGUG	1.915 ± 0.004	2.01 ± 0.029
UUCCCA	2.034 ± 0.0022	2.03 ± 0.04
UUAACC	2.016 ± 0.0049	2 ± 0.025
ACCUUG	1.953 ± 0.0055	1.999 ± 0.011
ACCUUA	2.045 ± 0.009	2.041 ± 0.017
UGACAU	1.9505 ± 0.00041	1.99 ± 0.05
ACCUAC	2.0248 ± 0.0018	2.02 ± 0.028
UGCCAU	1.982 ± 0.0048	2 ± 0.021
ACAAAU	1.952 ± 0.015	2.01 ± 0.053
AGGCAG	1.965 ± 0.0036	1.99 ± 0.053
GGCCCA	2.053 ± 0.01	2.032 ± 0.012
CCUAUG	2.04 ± 0.031	2.06 ± 0.028
GGUGAG	1.908 ± 0.012	1.99 ± 0.01
AGCGAG	1.886 ± 0.014	1.998 ± 0.012
CGCGGA	2.052 ± 0.0026	2.05 ± 0.03
UAGAGU	1.855 ± 0.011	1.992 ± 0.016
GCAUAC	1.9845 ± 0.0011	2.03 ± 0.033
GUCGUG	1.9677 ± 0.0013	2.04 ± 0.029

Variant	normalized RNA/DNA level without ligand (log10) [1]	normalized RNA/DNA level with ligand (log10) [2]
GGGGUG	1.997 ± 0.011	2.061 ± 0.019
GAGGAG	1.9 ± 0.013	2.031 ± 0.017
GAGGAC	1.947 ± 0.013	2.014 ± 0.016
CGAAGG	1.859 ± 0.012	1.94 ± 0.022
AGUGGU	1.95 ± 0.013	2.02 ± 0.049
AUUCUA	2.005 ± 0.0047	1.999 ± 0.01
UCCCGU	2.041 ± 0.013	2.04 ± 0.044
CUCUCA	2.05 ± 0.015	2.02 ± 0.057
CCAACG	2.0184 ± 0.002	2.01 ± 0.041
UACUAG	1.828 ± 0.016	1.99 ± 0.031
UACCUA	2.0242 ± 0.0004	2.069 ± 0.019
GUUCCG	2.032 ± 0.011	2.02 ± 0.04
CCGGUA	2.01 ± 0.038	2.009 ± 0.011
CGCUUC	2.1105 ± 0.0021	2.09 ± 0.066
CGAGGA	2.019 ± 0.0022	2.04 ± 0.029
ACUGCC	2.06 ± 0.024	2.06 ± 0.039
AGGUUC	2.02 ± 0.024	2.03 ± 0.045
GUUACU	2.03 ± 0.027	2.03 ± 0.037
CAGUAU	1.951 ± 0.0075	2.016 ± 0.013
GCACUA	2.019 ± 0.018	2.01 ± 0.022

Variant	normalized RNA/DNA level without ligand (log10) [1]	normalized RNA/DNA level with ligand (log10) [2]
CGAUCC	2.05 ± 0.023	2.06 ± 0.036
AGCCGG	2.068 ± 0.019	2.01 ± 0.045
GCGGUC	2.06 ± 0.024	2.06 ± 0.056
GUGGCU	2.047 ± 0.0085	2.06 ± 0.028
CUCAGU	2.024 ± 0.015	2.017 ± 0.015
ACUGUU	2 ± 0.02	2.01 ± 0.037
AAAUCU	2.0432 ± 0.0014	2.03 ± 0.048
UCUUAU	2 ± 0.028	2 ± 0.013
UCCUCU	2.054 ± 0.0029	2.04 ± 0.024
GGUCCU	2.09 ± 0.0075	2.09 ± 0.062
GUAUUA	2.005 ± 0.01	2 ± 0.072
UCGACA	1.999 ± 0.0076	2.022 ± 0.0062
AGUUAU	1.979 ± 0.0072	2.02 ± 0.018
UUGUCG	1.94 ± 0.032	2.03 ± 0.034
UCGCGA	2.0026 ± 0.0006	2.02 ± 0.068
GGGAUU	2.0271 ± 0.0004	2.04 ± 0.047
UCAGUG	1.78 ± 0.018	1.972 ± 0.011
UUACCG	1.969 ± 0.0046	2 ± 0.04
